Laboratory results taken from patent publication US10508147B2, “Anti-nodal antibodies and methods of using same” (ANN AND ROBERT H. LURIE CHILDREN'S HOSPITAL OF CHICAGO, priority 2014, dated 2019).
Where “and” joins values, the source holds several entries; their conditions need not be identical. Equal entries are not always repeated.

Tests used:
rhNodal = target: T1, rhNodal (Homo sapiens, UniProt Q96S42); experiment: SPR direct binding of mAbs and 3D1 fragments to rhNodal immobilized on a CM5 sensor chip
T1 construct: E. coli derived His238 Leu347, with an N-terminal Met; purchased R&D System 3218ND; host or cells: E. coli
T1 sequence (Q96S42 238-347): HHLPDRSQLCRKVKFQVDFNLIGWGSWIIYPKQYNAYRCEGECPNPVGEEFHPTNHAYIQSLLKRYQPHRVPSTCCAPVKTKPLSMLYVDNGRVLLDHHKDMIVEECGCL
Procedure: Antibodies (mAbs) that selectively recognized wild type human Nodal (E49E50) were further screened in order to identify mAbs that bound full length Nodal. Surface plasmon resonance (SPR) biosensor direct binding assay was used. Recombinant human Nodal protein (rhNodal, E. coli derived His238 Leu347, with an N-terminal Met Accession # Q96S42, cat. num 3218ND, R&D System) was immobilized on a CM5 sensor chip.
SPR analyses were performed on a Biacore 3000 instrument from GE Healthcare, using CM5 sensor chips and certified HBS buffer (20 mM HEPES, 0.15 M NaCl, pH 7.4, P20, 0.005%). Protein immobilization was carried out following the canonical amine coupling chemistry using the surface immobilization wizard procedure, operating at 5 μL/min. Channels were activated with EDC/NHS for 7 min; for the binding assays of purified mAbs to Nodal protein, rhNodal, opportunely diluted in the pre-selected sodium acetate buffer pH 4.5, was coupled until a 4000 RU level was achieved. Residual reactive groups on the sensor chip surface were deactivated by addition of 1.0 M ethanolamine hydrochloride, pH 8.5. Antibody binding was tested at 20 μL/min injecting solutions of 3D1 (60 μL) in HBS-EP at increasing concentrations (6-100 nM). A 10 mM NaOH solution was used to regenerate the chip surface.
After the single-dose screening, dose-dependent binding analyses were carried out with the two antibodies, 3D1 and 5F10, able to bind the full-length protein. Binding of 3D1 was carried out at concentrations ranging between 6 and 100 nM. For 5F10 higher concentrations were required (100, 250, 500 and 750 nM). Dissociations were monitored for at least 500 s. To carry out the mapping of the 3D1 epitope, the whole antibody was immobilized at 5 μg/mL in 10 mM NaAc buffer pH 5 at a flow rate of 5 μL/min by standard amine coupling chemistry on a CM5 sensor chip. The immobilization level reached with the mAb was about 5350 RU. On another channel of the same sensor chip, the 3D1 Fab′ was immobilized at 10 μg/mL in 10 mM NaAc buffer pH 4.5 at a flow rate of 5 μL/min, following the standard amine coupling chemistry. The amount of immobilized Fab′ was about 2570 RU. Residual reactive groups were deactivated by 1M ethanolamine hydrochloride, pH 8.5. The blank channel was prepared as already described. Real-time binding analyses were performed at a flow rate of 20 μL/min, using HBS-EP buffer, injecting a constant sample volume of 60 μL. Peptides opportunely diluted in HBS-EP buffer were injected at the following concentrations: 0.5, 1, 2.5, 5, 10, and 20 μM. Dissociations were monitored for at least 500 s; the regeneration solution was 5 mM NaOH.
For each analysis, experimental sensorgrams were aligned, subtracted of blank signals and overlapped. All mathematical manipulations and fitting were performed using the BiaEvaluation software, vers. 4.1 from GE Healthcare. All experimental data gave optimal fittings when processed assuming a 1:1 Langmuir binding interaction.
SPR analyses were performed at 25° C. using HBS as running buffer. Protein immobilization was carried out following the canonical amine coupling chemistry using the surface immobilization wizard procedure, operating at 5 μL/min. Channels were activated with EDC/NHS [N-(3-dimethylaminopropyl)-N′-ethylcarbodiimide hydrochloride(EDC)/[…](NHS) for 7 min; for the binding assays, rhNodal, appropriately diluted in the pre-selected sodium acetate buffer pH 4.5, was coupled until a 4000 RU level was achieved. Residual reactive groups on the sensor chip surface were deactivated by addition of 1.0 M ethanolamine hydrochloride, pH 8.5. Antibody binding was tested at 20 μL/min injecting solutions of 3D1 (60 μL) in HBS at increasing concentrations (6.0 nM-100 nM). A 10 mM NaOH solution was used to regenerate the chip surface. […]

recombinant Nodal = target: T2, recombinant Nodal (Homo sapiens, UniProt Q96S42); experiment: Sandwich ELISA to detect Nodal with 3D1 as capture antibody; design: E. coli derived His238 Leu347, with an N-terminal Met; purchased R&D Systems; settings: rabbit monoclonal anti-Nodal for detection
T2 sequence (Q96S42 238-347): T1 sequence (Q96S42 238-347)
Description: A typical calibration curve was obtained using a sandwich ELISA assay developed to detect Nodal (detection limit 50 pg/well) (See FIG. 22). The assay used monoclonal anti-Nodal antibody (designated 3D1) to coat an ELISA dish to capture rNodal (recombinant Nodal) from solutions with different concentrations of rNodal and a second, rabbit monoclonal anti-Nodal antibody to detect the captured rNodal. The resulting captured rNodal-antibody complex was then detected with an anti-rabbit antibody conjugated to horseradish peroxidase and a QuantaRed enhanced chemifluorescent horseradish peroxidase substrate.
By epitope mapping of commercially available Nodal antibodies and 3D1 mAb, the latter was chosen as the capture antibody for coating ELISA dishes, while a rabbit monoclonal anti-Nodal (Abcam) served for detecting the bound Nodal. The immune complex was subsequently quantified using a horseradish peroxidase-conjugated anti-rabbit antibody in conjunction with QuantaRed enhanced chemifluorescent horseradish peroxidase substrate (ThermoFisher). The established sandwich ELISA assay detects Nodal as a recombinant protein in conditioned media from human embryonic stem cells and in biological fluids with a detection limit (calculated using recombinant Nodal) of […]. Human serum samples from breast cancer patients were purchased from BioOptions (Brea, Calif.).

B1: 3D1: mouse monoclonal anti-Nodal antibody raised against hNodal(44-67); light chain SEQ ID NO:1, heavy chains SEQ ID NO:2 and 3 (protein)
light: DIKMTQSPASLSASVGETVTITCRASGNIHNYLAWYQQKQGKSPQLLVYNAKTLADGVPSRFSGSGSGTQYSLKINSLQPEDFGSYYCQHFWSTPHVRCWDQAGTETEAW
heavy 1: VKLVESGGGLVKPGGSLKLSCAASGFTFSSYAMSWVRQTPEKRLEWVASISSGGCTYYPDSVKGRFTISRDNARNILYLQMSSLRSEDTAMYYCARGSMITADGNSLLLCYGLLGSRNLXHR
heavy 2: VKLVESGGGLVQPGGSMKLSCVASGFTFRNYWMSWVRQSPEKGLEWVAEIRLKSDNYAARYAESVKGKFTISRDDSKSRLYLQMNSLRAEDTGIYYCTGIRRFAYWGQGTL
modifications: not fully specified; (120)..(120) Xaa can be any naturally occurring amino acid
With B1 the average kd (rhNodal) was 0.000655 s⁻¹, the Kd (rhNodal; Average over concentrations) was 1.42 nM and the ka (rhNodal; Average over concentrations) was 695000 M⁻¹ s⁻¹. The kd (rhNodal; Average over concentrations) was 0.000655 s⁻¹, the Kd (rhNodal; Example 1, hNodal immobilized on CM5 chip, antibody injected) was about 1.3 nM and the Kd (rhNodal; Examples 2 and 4, running text, averaged over dose-dependent runs) was 1.42 nM and 1.4 nM. For the same molecule, the Kd (rhNodal; analyte injected at 6 nM) was 0.491 nM, the ka (rhNodal; analyte injected at 6 nM) was 1.28e+06 M⁻¹ s⁻¹ and the kd (rhNodal; analyte injected at 6 nM) was 0.000629 s⁻¹. It also gave a Kd (rhNodal; analyte injected at 12 nM) of 0.698 nM, a ka (rhNodal; analyte injected at 12 nM) of 979000 M⁻¹ s⁻¹ and a kd (rhNodal; analyte injected at 12 nM) of 0.000683 s⁻¹. It also gave a Kd (rhNodal; analyte injected at 25 nM) of 0.968 nM, a ka (rhNodal; analyte injected at 25 nM) of 642000 M⁻¹ s⁻¹ and a kd (rhNodal; analyte injected at 25 nM) of 0.000622 s⁻¹. For the same molecule, the Kd (rhNodal; analyte injected at 50 nM) was 1.93 nM, the ka (rhNodal; analyte injected at 50 nM) was 361000 M⁻¹ s⁻¹ and the kd (rhNodal; analyte injected at 50 nM) was 0.000697 s⁻¹. It also gave a Kd (rhNodal; analyte injected at 100 nM) of 3.03 nM, a ka (rhNodal; analyte injected at 100 nM) of 212000 M⁻¹ s⁻¹ and a kd (rhNodal; analyte injected at 100 nM) of 0.000644 s⁻¹. The “ability to bind the full-length rhNodal protein” value (rhNodal; single-dose SPR screening, mAbs at 100 nM) was “able to bind the full-length rhNodal protein”, the “detection limit for Nodal” value (recombinant Nodal) was 50 pg/well and the “detection limit for Nodal” value (recombinant Nodal; listed as 3D1 mAb) was 75 pg/well.
